Assay [1] deals with human GCC, full length with myc tag (293-GCC#2 cells) (human), P25092. Description: whole cell binding of radiolabeled ST-toxin, 293-GCC cells.
Assay [2] deals with T1, human guanylyl cyclase C (GCC), full length (human), P25092. Description: whole cell binding of radiolabeled ST-toxin, HT-29-GCC#2/#5 cells.
In assay [3] the target is T1, human guanylyl cyclase C (GCC), full …. Briefly: whole cell binding of radiolabeled ST-toxin, T84 cells (endogenous GCC).

T1 sequence (P25092 24-1073 limits assumed): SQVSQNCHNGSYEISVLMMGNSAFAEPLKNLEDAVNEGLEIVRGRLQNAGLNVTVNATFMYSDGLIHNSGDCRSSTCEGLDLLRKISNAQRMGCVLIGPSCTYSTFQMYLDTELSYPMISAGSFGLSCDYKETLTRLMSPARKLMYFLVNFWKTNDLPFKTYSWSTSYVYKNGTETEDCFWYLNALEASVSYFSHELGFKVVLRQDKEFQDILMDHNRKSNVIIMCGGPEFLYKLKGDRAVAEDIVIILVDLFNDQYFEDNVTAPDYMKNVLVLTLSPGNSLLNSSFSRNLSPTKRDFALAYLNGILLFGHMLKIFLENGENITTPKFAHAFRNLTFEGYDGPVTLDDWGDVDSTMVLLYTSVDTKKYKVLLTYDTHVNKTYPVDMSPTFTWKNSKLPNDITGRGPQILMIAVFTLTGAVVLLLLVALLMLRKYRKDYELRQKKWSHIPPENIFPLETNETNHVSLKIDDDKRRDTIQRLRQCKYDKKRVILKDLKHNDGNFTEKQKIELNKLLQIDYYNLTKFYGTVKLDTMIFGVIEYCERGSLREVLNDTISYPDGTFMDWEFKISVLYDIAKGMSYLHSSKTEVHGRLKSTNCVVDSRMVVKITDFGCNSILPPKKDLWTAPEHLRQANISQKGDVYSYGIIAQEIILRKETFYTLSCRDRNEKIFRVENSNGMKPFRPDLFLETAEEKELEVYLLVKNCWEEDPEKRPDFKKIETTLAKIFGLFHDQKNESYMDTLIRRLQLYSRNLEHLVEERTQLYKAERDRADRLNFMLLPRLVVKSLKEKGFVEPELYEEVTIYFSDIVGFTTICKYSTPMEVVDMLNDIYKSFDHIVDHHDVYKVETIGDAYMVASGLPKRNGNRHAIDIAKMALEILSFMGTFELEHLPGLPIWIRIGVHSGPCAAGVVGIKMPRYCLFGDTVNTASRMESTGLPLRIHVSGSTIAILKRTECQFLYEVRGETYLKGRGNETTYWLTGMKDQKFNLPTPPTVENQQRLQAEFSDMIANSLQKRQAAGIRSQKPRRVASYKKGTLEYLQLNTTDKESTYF
Chain of human GCC, full length with myc tag (293-GCC#2 cells) (human), P25092 (P25092 24-1073): as the sequence (P25092 24-1073 limits assumed) above

In the case of NTFYCCELCCNPACAGCY (modifications not checked) [heat-stable enterotoxin (ST) peptide], the Whole cell binding assay (receptor/cell) (receptor/cell) worked out at 600000 in assay [1], 100000 in assay [2] and 300000 in assay [3].

The values above are taken from US20140322233A1.
